{
  "source": "patent US20240287194A1",
  "about": "“Targeting Extracellular Matrix Proteins to Regulate NK Cell Function in Peripheral Tissues” (The General Hospital Corporation, priority 2021, published 2024)",
  "format_in_all_cases": "cell-based, mice",
  "key": {"[1]": {"system": "Ly49H^+ splenic cNK cells", "assay": "Splenic cNK cell co-culture with m157-MEF in the presence of ECM proteins (CD107a, IFNγ flow cytometry)", "conditions": "for Ly49H+ cNK cell degranulation (CD107a): 9 and 24 hours co-culture with m157-MEF, ECM coated 20 μg/cm2", "procedure": "(§1) Single-cell suspensions from all samples were prepared by straining through a 70 μm filter. 2.4G2 supernatant treated cells were stained in 1×PBS/2% FCS/5 mM EDTA with the appropriate surface antibodies (Table 2) for 30 minutes at 4° C., washed and analyzed by flow cytometry. For intracellular staining, cells were fixed and permeabilized using True-Nuclear Transcription Buffer set (Biolegend, catalog no. 424401) according to the manufacturer's protocol then incubated with appropriate antibodies (Table 2) for 60 min at RT, washed and analyzed by flow cytometry. For in vitro signaling experiments, following the specified time points, cells were fixed with an equal volume of pre-warmed 1×aldehyde based fixation buffer (Biolegend, catalog no. 420801) for 20 min at RT. Fixed cells were permeabilized by drop-wise addition of chilled methanol-based solution True-Phos Perm Buffer (Biolegend, catalog no. 425401) while mixed on a vortex. Cells were stored in-20° C. and dark for 1-3 days before washing them two times with ˜3 mL of 1×PBS/2% FCS/5 mM EDTA. Cells were subsequently stained with appropriate antibodies against surface markers and specific phosphorylated signaling proteins (Table 2) for 60 min at RT, washed and analyzed by flow cytometry. Cells were assayed on a BD LSRFortessa X-20 flow cytometer (BD Bioscience, Billerica, MA, USA) and data were analyzed using FlowJo software Version 10 (Tree Star, Ashlad, OR, USA). NK cells in WT non-reporting mice were identified as CD3^− NK1.1^+NKp46^+.\n(§2) For in vitro experiments in the presence of ECM components, Collagen I (Rat tail, Sigma, catalog no. 08-115), collagen III (Human placenta, Sigma, catalog no. C4407), collagen IV (Mouse, Sigma, catalog no. C0543), Elastin (Mouse lung, Sigma, catalog no. E6402), Laminin (Mouse, Thermo Fisher, catalog no. 23017015) and Fibronectin (Rat plasma, Sigma, catalog no. F0635) were diluted in 1×PBS and coated at 20 μ ENREF 45 g/cm^2 in a 24 well tissue culture plate for 30 minutes at RT with gentle shaking followed by overnight at 4° C. Spleens from Ncr1^iCre, ROSA^mT-mG, WT or Lair1^−/− mice were harvested as described above. Then, 5×10^6 splenocytes resuspended in RPMI 10% FBS/1% P/S/20 mM Glutamine were mixed with 20 μg of respective ECM protein per well and were incubated at RT for 10 minutes. Splenocytes and ECM mix were plated onto the ECM-coated well and were incubated at 37° C./5% CO2 for 2 hours (short ECM exposure) or 17 hours (long ECM exposure). At the end of the incubation, 1×10^5 MEF (WT or m157) cells were added to each well to obtain a 50:1 splenocyte:MEF ratio. For cell signaling experiments, hydrogen peroxide (H2O2) at a final concentration of 2.5 mM or 1×10^5 MEF-m157 cells were added to each well except in “0 min” wells which were unstimulated and fixed immediately. Splenocytes were stimulated with 2.5 mM H2O2 for 2 min and 5 min or were co-cultured with MEF-m157 for 30 min and 60 min (signaling) or 7 hours (CD107a and IFN[…]) at 37° C./5% CO2. Splenocytes and MEF in co-culture were supplemented with mIL-12 (10 ng/mL, Biolegend, catalog no. 577002), mIL-15 (1 ng/mL, Shenandoah Biotechnology, catalog no. 200-07) and hIL-2 (Biolegend, catalog no. 589104; only long ECM exposure) as well as for CD107a/IFN experiments. 1 μL of anti-CD107a-BV421 (1D4B, Biolegend, catalog no. 121618), 1×Brefeldin A (Biolegend, catalog no. 420601) and 1×Monensin (Biolegend, catalog no. 420701) were added. Following the co-culture, cells were washed with 1×PBS/2% FCS/5 mM EDTA and the pellet was resuspended in 2.4G2 blocking solution before flow cytometry staining."}, "splenic cNK cells [2]": {"system": "splenic cNK cells", "assay": "LEGENDplex chemokine release by splenic NK cells co-cultured with m157-MEF on ECM proteins", "conditions": "for CCL5 release by splenic cNK cells / CXCL10 release by splenic cNK cells: 12 hours", "procedure": "NK cells purified from spleens under sterile conditions were used for LEGENDplex experiments. Spleens from 8-9-week-old C57BL/6 female WT mice were harvested and mashed through a 70 μm filter. Cells were resuspended in RBC lysis for two minutes and washed with 1×PBS/2% FCS/5 mM EDTA. NK cells were enriched by negative selection using an NK cell isolation kit (Milteny Biotec, catalog no. 130-115-818) and magnetic LS columns (Milteny Biotec, catalog no. 130-042-401) according to the manufacturer's instructions. Enrichment of isolated NK cells was confirmed by flow cytometry and was 88-90% CD3^−NK1.1^+NKp46^+ cells. Enriched NK cells were resuspended in RPMI 1640 media supplemented with 10% FBS and 1% P/S.\nECM protein coating on wells was performed as previously described. 1×10^5 enriched splenic NK cells was mixed with 20 μg of respective ECM protein per well in RPMI 1640/10% FBS/1% P/S/20 mM Glutamine and incubated at RT for 10 minutes. NK cells and ECM mix were plated onto the ECM-coated well and were incubated at 37° C./5% CO2 for 2 hours. At the end of the incubation, 1×10^5 MEF (WT or m157) cells were added to the respective wells to obtain a 1:1 NK:MEF ratio. NK cells and MEF were co-cultured at 37° C. 5% CO2 for 24 hours supplemented with mIL-12 (10 ng/mL, Biolegend, catalog no. 577002) and mIL-15 (1 ng/ml, Shenandoah Biotechnology, catalog no. 200-07-100 μg). The supernatant was collected at 12- and 24-hour intervals, centrifuged to remove cells/cell debris and subsequently frozen at −80° C. until further use. Quantification of murine cytokines and chemokines (CCL2, CCL5, CXCL9, CXCL10) in supernatants was performed with LEGENDplex kits (Biolegend, catalog nos. 740451, 740622) according to manufacturer's instructions. In brief, a mix of capture beads with distinct size and fluorescence was incubated with undiluted S/N or standard dilutions for 2 hours at RT with constant shaking. Beads were washed, a biotinylated detection antibody was added and the plate was incubated for 1 hour at RT with constant shaking. The streptavidin-PE conjugate was added and further incubated for 30 minutes at RT on a shaker. Beads were washed and subsequently acquired on a BD LSRFortessa X-20 flow cytometer. Analysis and quantification of the results were done using LEGENDplex data analysis software (BioLegend). Quantification was reported as pg/ml for CCL2, CCL5, CXCL10 and as MFI for CXCL9."}, "splenic cNK cells [3]": {"system": "splenic cNK cells", "assay": "Phospho-signaling in splenic cNK cells stimulated with H2O2 in the presence of ECM proteins", "conditions": "baseline and 2- and 5-minute exposure to H2O2", "procedure": "as §1, §2"}, "splenic cNK cells [4]": {"system": "splenic cNK cells", "assay": "Phospho-signaling in splenic cNK cells co-cultured with m157-MEF in the presence of ECM proteins", "procedure": "as §1, with “Cells were stored in-20° C. and dark for 1-3 days before washing them two times with ˜3 mL of 1×PBS/2% FCS/5 mM EDTA.” left out, “NK cells in WT non-reporting mice were identified as CD3^− NK1.1^+NKp46^+.” left out"}},
  "data": [
    {"molecule": "collagen I: Collagen I (Rat tail, Sigma), dermal ECM protein", "values": [
      {"measurement": "Ly49H+ cNK cell degranulation (CD107a)", "setting": "[1]", "result": "potently blocked"},
      {"measurement": "IFNγ production by Ly49H+ cNK cells", "setting": "[1]; exposed to m157-MEF, 9 and 24 hours", "result": "suppressed"},
      {"measurement": "CCL5 release by splenic cNK cells", "setting": "splenic cNK cells [2]", "result": "suppressed"},
      {"measurement": "CXCL10 release by splenic cNK cells", "setting": "splenic cNK cells [2]", "result": "significantly induced"},
      {"measurement": "CCL2 release by splenic cNK cells", "setting": "splenic cNK cells [2]; 24 hours", "result": "significantly induced"},
      {"measurement": "pNFκB in NK cells", "setting": "splenic cNK cells [3]", "result": "suppressive effect"},
      {"measurement": "pSTAT3 in NK cells", "setting": "splenic cNK cells [3]", "result": "suppressive effect"}
    ]},
    {"molecule": "collagen III: collagen III (Human placenta, Sigma), dermal ECM protein (protein, UniProt P02461 154-1221, looked up) Collagen alpha-1(III) chain: QYDSYDVKSGVAVGGLAGYPGPAGPPGPPGPPGTSGHPGSPGSPGYQGPPGEPGQAGPSGPPGPPGAIGPSGPAGKDGESGRPGRPGERGLPGPPGIKGPAGIPGFPGMKGHRGFDGRNGEKGETGAPGLKGENGLPGENGAPGPMGPRGAPGERGRPGLPGAAGARGNDGARGSDGQPGPPGPPGTAGFPGSPGAKGEVGPAGSPGSNGAPGQRGEPGPQGHAGAQGPPGPPGINGSPGGKGEMGPAGIPGAPGLMGARGPPGPAGANGAPGLRGGAGEPGKNGAKGEPGPRGERGEAGIPGVPGAKGEDGKDGSPGEPGANGLPGAAGERGAPGFRGPAGPNGIPGEKGPAGERGAPGPAGPRGAAGEPGRDGVPGGPGMRGMPGSPGGPGSDGKPGPPGSQGESGRPGPPGPSGPRGQPGVMGFPGPKGNDGAPGKNGERGGPGGPGPQGPPGKNGETGPQGPPGPTGPGGDKGDTGPPGPQGLQGLPGTGGPPGENGKPGEPGPKGDAGAPGAPGGKGDAGAPGERGPPGLAGAPGLRGGAGPPGPEGGKGAAGPPGPPGAAGTPGLQGMPGERGGLGSPGPKGDKGEPGGPGADGVPGKDGPRGPTGPIGPPGPAGQPGDKGEGGAPGLPGIAGPRGSPGERGETGPPGPAGFPGAPGQNGEPGGKGERGAPGEKGEGGPPGVAGPPGGSGPAGPPGPQGVKGERGSPGGPGAAGFPGARGLPGPPGSNGNPGPPGPSGSPGKDGPPGPAGNTGAPGSPGVSGPKGDAGQPGEKGSPGAQGPPGAPGPLGIAGITGARGLAGPPGMPGPRGSPGPQGVKGESGKPGANGLSGERGPPGPQGLPGLAGTAGEPGRDGNPGSDGLPGRDGSPGGKGDRGENGSPGAPGAPGHPGPPGPVGPAGKSGDRGESGPAGPAGAPGPAGSRGAPGPQGPRGDKGETGERGAAGIKGHRGFPGNPGAPGSPGPAGQQGAIGSPGPAGPRGPVGPSGPPGKDGTSGHPGPIGPPGPRGNRGERGSEGSPGHPGQPGPPGPPGAPGPCCGGVGAAAIAGIGGEKAGGFAPYYG", "values": [
      {"measurement": "Ly49H+ cNK cell degranulation (CD107a)", "setting": "[1]", "result": "potently blocked"},
      {"measurement": "CCL5 release by splenic cNK cells", "setting": "splenic cNK cells [2]", "result": "suppressed"},
      {"measurement": "CXCL10 release by splenic cNK cells", "setting": "splenic cNK cells [2]", "result": "significantly induced"},
      {"measurement": "CCL2 release by splenic cNK cells", "setting": "splenic cNK cells [2]; 24 hours", "result": "significantly induced"},
      {"measurement": "CXCL9 release by cNK cells", "setting": "splenic cNK cells [2]; 24 hours", "result": "induced"},
      {"measurement": "phospho-NFκB (p65) in splenic cNK cells", "setting": "splenic cNK cells [4]; after 30- and 60-minutes exposure to m157-MEF", "result": "highly amplified"},
      {"measurement": "phospho-NFκB (p65) in splenic cNK cells", "setting": "splenic cNK cells [4]; at baseline", "result": "significantly induced"},
      {"measurement": "pNFκB in NK cells", "setting": "splenic cNK cells [3]", "result": "increased"}
    ]}
  ]
}
